Here are results for six molecules from patent US20240116995A1 (89BIO, published 2024).

Changes are numbered by the printed parent chain.

B1: 20 kDa PEG-FGF-21 P(5)TSSP mutant conjugate (ligand)
chain: MHPIPTSSPLLQFGGQVRQRYLYTDDAQQTEAHLEIREDGTVGGAADQSPESLLQLKALKPGVIQILGVKTSRFLCQRPDGALYGSLHFDPEACSFRELLLEDGYNVYQSEAHGLPLHLPGNKSPHRDPAPRGPARFLPLPGLPPALPEPPGILAPQPPDVGSSDPLSMVGPSQGRSPSYAS
modifications: GalNAc-SA-PEG-20 kDa (glycoPEG) on the introduced threonine 6
B2: 20 kDa PEG-FGF-21 P(156)TP mutant conjugate (ligand)
chain: B1 chain with T6D, Q157T
modifications: GalNAc-SA-PEG-20 kDa (glycoPEG) on the introduced threonine 157
B3: 30 kDa PEG-FGF-21 P(172)TQGAS mutant conjugate (ligand)
chain: B1 chain with T6D, S173T, R176A
modifications: GalNAc-SA-PEG-30 kDa (glycoPEG) on the introduced threonine 173
B4: 30 kDa PEG-FGF-21 P(156)TP mutant conjugate (ligand)
chain: B1 chain with T6D, Q157T
modifications: GalNAc-SA-PEG-30 kDa (glycoPEG) on the introduced threonine 157
B5: 20 kDa PEG-FGF-21 P(172)TQGAS mutant conjugate (ligand)
chain: B1 chain with T6D, S173T, R176A
modifications: GalNAc-SA-PEG-20 kDa (glycoPEG) on the introduced threonine 173
B6: 30 kDa PEG-FGF-21 P(5)TSSP mutant conjugate (ligand)
chain: B1 chain
modifications: GalNAc-SA-PEG-30 kDa (glycoPEG) on the introduced threonine 6

The experiment addresses T1, human β-Klotho (human, UniProt Q86Z14 1-1044).
T1 sequence (looked up): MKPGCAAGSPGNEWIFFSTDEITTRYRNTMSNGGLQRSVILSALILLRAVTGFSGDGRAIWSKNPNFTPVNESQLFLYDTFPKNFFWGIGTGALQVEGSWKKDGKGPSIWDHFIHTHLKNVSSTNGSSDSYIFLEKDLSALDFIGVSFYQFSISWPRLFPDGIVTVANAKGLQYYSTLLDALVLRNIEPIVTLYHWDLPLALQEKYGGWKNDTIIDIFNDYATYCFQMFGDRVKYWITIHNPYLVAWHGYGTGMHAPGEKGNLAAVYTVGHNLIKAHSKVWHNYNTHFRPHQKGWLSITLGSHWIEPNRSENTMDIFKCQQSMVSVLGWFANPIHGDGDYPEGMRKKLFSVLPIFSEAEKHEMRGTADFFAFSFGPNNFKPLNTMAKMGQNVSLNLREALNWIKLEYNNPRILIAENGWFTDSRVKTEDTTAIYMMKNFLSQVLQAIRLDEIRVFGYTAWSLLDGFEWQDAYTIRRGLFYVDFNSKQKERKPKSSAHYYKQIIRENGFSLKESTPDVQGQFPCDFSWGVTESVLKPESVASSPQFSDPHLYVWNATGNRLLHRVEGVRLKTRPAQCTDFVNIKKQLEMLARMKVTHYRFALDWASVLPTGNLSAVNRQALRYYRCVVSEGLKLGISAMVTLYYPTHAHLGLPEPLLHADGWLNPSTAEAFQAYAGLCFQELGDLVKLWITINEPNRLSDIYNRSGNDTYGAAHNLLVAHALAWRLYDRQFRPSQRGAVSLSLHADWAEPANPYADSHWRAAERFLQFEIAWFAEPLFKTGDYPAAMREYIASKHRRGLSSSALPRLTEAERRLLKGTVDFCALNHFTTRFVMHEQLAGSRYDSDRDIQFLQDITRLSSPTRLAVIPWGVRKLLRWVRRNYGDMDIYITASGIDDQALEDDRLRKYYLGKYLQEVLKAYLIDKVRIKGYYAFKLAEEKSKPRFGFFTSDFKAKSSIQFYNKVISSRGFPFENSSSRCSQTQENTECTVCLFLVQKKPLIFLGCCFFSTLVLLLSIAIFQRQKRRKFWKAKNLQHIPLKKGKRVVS
As to the kind of experiment: cell-based or functional assay.
Turning to B1, the “ERK phosphorylation HEK-293 cells expressing β-Klotho EC50 values” came to 293 nM.
Regarding B2, the “ERK phosphorylation HEK-293 cells expressing β-Klotho EC50 values” was 109 nM.
To B3 belongs 177 nM.
To B4 belongs 188 nM; to B5, 86 nM; to B6, more than 3000 nM.
